Experimental data from paper PMC7383879, “HSI2/VAL1 and HSL1/VAL2 function redundantly to repress DOG1 expression in Arabidopsis seeds and seedlings”.

B1: RY1 probe (dsDNA)
DNA 1: GTCCTCCACGTAATGCATGCATGCGTTATTTCTTTT
DNA 2: AAAAGAAATAACGCATGCATGCATTACGTGGAGGAC
B2: mRY1 probe (dsDNA)
DNA 1: GTCCTCCACGTAATGGACTACTGCGTTATTTCTTTT
DNA 2: AAAAGAAATAACGCAGTAGTCCATTACGTGGAGGAC

Biological target: T1, HSI2 B3 domain (B3HSI2) (Arabidopsis thaliana, UniProt Q8W4L5 295-396)
T1 sequence: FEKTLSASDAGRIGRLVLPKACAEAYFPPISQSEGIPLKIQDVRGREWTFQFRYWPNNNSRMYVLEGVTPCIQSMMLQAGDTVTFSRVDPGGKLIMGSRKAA
Assay: EMSA; 10 mM Tris pH 7.9, 30 mM KCl, 0.1 mM EDTA, 1 mM DTT, 0.05% NP-40, 6.5% glycerol, 50 ng/ml (so in the source) poly(dIdC), 50 fmol probe, 20 min at room temperature
Conditions: protein: recombinant; tags: His-Trx (Results); His (Methods, legend); label: 3' biotin; blunt

Binder	binding result
B1	binds
B2	no binding
